Earlier results in US20190382746.

Legend:
[1] = system: PP7 coat protein (Pseudomonas phage PP7); conditions: CITED? source not stated; cited from earlier work
[2] = system: RSG1.2 peptide (synthetic); conditions: CITED? source not stated; cited from earlier work

Substance | Kd [1] | Kd [2]
PP7 aptamer (25 nt) | 2 nM | 
RSG1.2 aptamer (HIV RRE, 34 nt) |  | 6 nM
